Laboratory results taken from PMC5655499, “Peptide array-based screening reveals a large number of proteins interacting with the ankyrin-repeat domain of the zDHHC17 S-acyltransferase” (The Journal of Biological Chemistry, 2017).

B1: SNAP25 15-mer peptide (wild type) containing the zDABM [not stated] / His6-tagged AR domain (residues 51–288) of zDHHC17 [human] (parent)
chain 1: THIDDYSTWDIVKATQYGIYERCRELVEAGYDVRQPDKENVTLLHWAAINNRIDLVKYYISKGAIVDQLGGDLNSTPLHWATRQGHLSMVVQLMKYGADPSLIDGEGCSCIHLAAQFGHTSIVAYLIAKGQDVDMMDQNGMTPLMWAAYRTHSVDPTRLLLTFNVSVNLGDKYHKNTALHWAVLAGNTTVISLLLEAGANVDAQNIKGESALDLAKQRKNVWMINHLQEARQAKGYDN
chain 2: QDGVVASQPARVVDE
B2: CSPα 15-mer peptide (wild type) containing the zDABM [not stated] / His6-tagged AR domain (residues 51–288) of zDHHC17 [human] (parent)
chain 1: B1 chain 1
chain 2: TDTPIVIQPASATET

Variants of: B1
Test: far-Western blotting on peptide array
Conditions: with His6-tagged AR domain (residues 51–288) of zDHHC17 [human]; ARzD17-His 500 nm in PBS-T, overnight, 4 °C
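Further: PSSM score: binding signal versus wild type scaled to sum 1 per position.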

Screen value: each site, then its substitutions
chain 2 V5: A < 0.005; Y < 0.005; W < 0.005; K < 0.005; L < 0.005; M < 0.005; D < 0.005; P < 0.005; S < 0.005; H < 0.005; N < 0.005; E < 0.005; T < 0.005; G < 0.005; Q < 0.005
chain 2 R11: M < 0.005; I < 0.005; E < 0.005; Q < 0.005; F < 0.005; D < 0.005; N < 0.005; V < 0.005; Y < 0.005; T < 0.005; L < 0.005
chain 2 Q8: I < 0.005; F < 0.005; Y < 0.005; A < 0.005; D < 0.005; V < 0.005; H < 0.005; E < 0.005; W < 0.005; P < 0.005; N < 0.005; S < 0.005; G < 0.005; T < 0.005
chain 2 V12: E < 0.005; D < 0.005
chain 2 P9: A < 0.005; C < 0.005; R < 0.005; W < 0.005; L < 0.005; H < 0.005; N < 0.005; E < 0.005; G < 0.005; S < 0.005; Y < 0.005; T < 0.005; D < 0.005; V < 0.005; M < 0.005; K < 0.005; F < 0.005; Q < 0.005
chain 2 V4: F < 0.005; W < 0.005; M < 0.005; A < 0.005; H < 0.005; N < 0.005; R < 0.005; K < 0.005; T < 0.005; L < 0.005; G < 0.005; E < 0.005; Y < 0.005; Q < 0.005; S < 0.005; D < 0.005
chain 2 A10: D < 0.005
chain 2 A6: G < 0.005; P < 0.005
chain 2 S7: G < 0.005; P < 0.005

Variants of: B2
Test: far-Western blotting on peptide array
Conditions: with His6-tagged AR domain (residues 51–288) of zDHHC17 [human]; ARzD17-His 500 nm in PBS-T, overnight, 4 °C

Screen value, by site and new letter:
chain 2 A10: D < 0.005
chain 2 I5: A < 0.005; D < 0.005; E < 0.005; F < 0.005; G < 0.005; H < 0.005; K < 0.005; L < 0.005; M < 0.005; N < 0.005; P < 0.005; Q < 0.005; R < 0.005; S < 0.005; T < 0.005; W < 0.005; Y < 0.005
chain 2 I7: P < 0.005
chain 2 P4: D < 0.005; F < 0.005; K < 0.005; L < 0.005; M < 0.005; N < 0.005; Q < 0.005; R < 0.005; S < 0.005; Y < 0.005
chain 2 P9: A < 0.005; C < 0.005; D < 0.005; E < 0.005; F < 0.005; G < 0.005; H < 0.005; I < 0.005; K < 0.005; L < 0.005; M < 0.005; N < 0.005; Q < 0.005; R < 0.005; S < 0.005; T < 0.005; V < 0.005; W < 0.005; Y < 0.005
chain 2 Q8: A < 0.005; D < 0.005; E < 0.005; F < 0.005; G < 0.005; H < 0.005; I < 0.005; K < 0.005; L < 0.005; N < 0.005; P < 0.005; R < 0.005; S < 0.005; T < 0.005; V < 0.005; W < 0.005; Y < 0.005
chain 2 S11: D < 0.005; E < 0.005
chain 2 V6: A < 0.005; D < 0.005; G < 0.005; P < 0.005
